These results are taken from patent US9402875B2, “Amidated dopamine neuron stimulating peptide restoration of mitochondrial activity” (University of Kentucky Research Foundation, priority 2006, dated 2016).

Assay [1] deals with E14 SD rat embryo primary dopaminergic neurons from the ventral mesencephalon. The format is cell-based. The procedure: DNSP-11 treatment of Mesencephalic Cells: Timed pregnant SD rats (Harlan) were used to obtain the ventral mesencephalon from E14 fetuses. The dissected tissue was collected in cold Neurobasal™ medium and rinsed twice with cold Dulbecco's PBS. The cells were chemically (TrypLE®) and mechanically dissociated to yield a single cell suspension. The solution was centrifuged at 169 g for 6 minutes and the pellet was resuspended in Dulbecco's Modified Eagle Medium (DMEM). Cells were plated in a 25 μL micro-island at a density of 4000 cells/μL on poly-D-lysine coated 24-well plates (Sigma). Following adherence, cells were supplemented with warm NEUROBASAL™ media containing 2 mM glutamine, 1×N2, and 100 units of penicillin/streptomycin. Neurotrophic compounds were added at each media addition, including initial plating and DIV 2. A dose response of the peptides (0.03 ng to 10 ng/mL) was added to a 24-well plate following media supplementation.
The neurotrophic effects of DNSP-11 were studied by comparing its effects to the well-known effects of GDNF on the maintenance of primary mesencephalic cell cultures from E14 SD rat embryos. E14 SD rat embryo primary dopaminergic neurons from the ventral mesencephalon were grown for 5 days in vitro and neurotrophic molecules were added at each media change, including initial plating and day 2. […] These effects were similar to those observed for GDNF in these cells, including an increase in the size of TH+ neurons, which was not observed for DNSP-11 (Table 4).
In Table 1, cell survival and morphological parameters were quantified for control (citrate buffer) and experimental (0.1 ng/ml GDNF or 0.1 ng/ml DNSP-11) conditions. For morphology, five fields per well (minimum of 15 cells/field; 3-4 independent experiments) were photographed at 20× magnification and quantified using a Bioquant Image Analysis System. […] Soma size was not increased by the addition of DNSP-11. A one-way ANOVA was used to test for significance among groups, followed by a Newman-Keuls post hoc analysis. Significance between control and experimental conditions was determined at *p<0.05 and **p<0.01.

The subject of assay [2] is MN9D dopaminergic cells. Briefly: TUNEL assay, protection against 6-OHDA toxicity. The format is cell-based. The conditions noted are these: 1 ng/mL for 1 hour before 100 μM 6-OHDA for 15 min; at 24 h. On the procedure:
(§1) MN9D Cell Cultures: The MN9D cell line has been described by Choi (1991) Brain Res. 552:67-76 and was a gift from Michael Zigmond. Cells were cultured in DMEM supplemented with 10% Fetal Bovine Serum (FBS, Hyclone), 50 U/mL penicillin and streptomycin. For experiments, the cells were plated on 24-well poly-D-lysine in DMEM with 1% (v/v) penicillin-streptomycin. The cells were grown at 37° C. in 5% CO2.
Terminal dUTP Nick-End Labeling (TUNEL) Assay in MN9D Cells: After treatment with DNSP-11, MN9D cells were fixed and labelled to assess degenerative nuclear changes as indicated by the extent of high-molecular weight DNA strand breaks. DNA fragmentation was detected by using steptavidin-horseradish peroxidise conjugate followed by the substrate diaminobenzidine (DAB) generating a colored precipitate. Ratios between apoptotic and total cells were determined (4 random fields/well; 4 wells/ group). Experiments were repeated 3 times.
To evaluate DNSP-11's neuroprotective properties, DNSP-11 was compared to GDNF in its protection against 6-OHDA-induced toxicity in the dopaminergic cell line, MN9D. MN9D dopaminergic cells were incubated for 1 hour with either citrate buffer (control), 1 ng/mL of DNSP-11 or GDNF prior to 100 μM 6-OHDA exposure for 15 min. […]

Assay [3] concerns MN9D dopaminergic cells. Description: Caspase-3 activity assay, protection against 6-OHDA toxicity. In kind it is cell-based. To be noted: 1 ng/mL for 1 hour before 100 μM 6-OHDA for 15 min; at 3 h. On the procedure:
as §1
Caspase-3 Activity Assay in MN9D Cells: MN9D cells were plated to 100,000 cells/well. Cell cultures were exposed to DNSP-11 (1 ng/mL) or buffer for 1 hour prior to 15 min 100 μM 6-OHDA exposure. Caspase-3 activity was monitored after 3 hours by fluorescence (excitation/emission 496/520 nm) using the Enz Chek Caspase-3 kit. Protein levels of lysed cells were measured by BCA assay (BioRad) and normalized for every experiment. Data expressed as % control and repeated a minimum of 3 times.
To evaluate DNSP-11's neuroprotective properties, DNSP-11 was compared to GDNF in its protection against 6-OHDA-induced toxicity in the dopaminergic cell line, MN9D. MN9D dopaminergic cells were incubated for 1 hour with either citrate buffer (control), 1 ng/mL of DNSP-11 or GDNF prior to 100 μM 6-OHDA exposure for 15 min. Data are +SD, one-way ANOVA with Tukey's post hoc analysis, *p<0.05, **p<0.01, ***p<0.001 vs. control; #p<0.05, ##p<0.01, ###p<0.001 vs. 6-OHDA.

Assay [4] deals with GAPDH (Homo sapiens, UniProt P04406). Description: Gel filtration analysis of interaction between GAPDH and GDNF. In kind it is binding. The conditions noted are these: equimolar solution, pre-equilibrated 1 h, Sephacryl S-200. On the procedure: A gel filtration study was performed using a 120 mL Sephacryl S-200 column at a constant 1 mL/min flow rate. Individual 300 μM solutions of GAPDH (˜150 kDa; FIG. 14, dotted line) or GDNF (˜30 kDa; FIG. 14, dashed line) eluted at expected retention times for their sizes of 50 min (FIG. 14, star) and 64 min (FIG. 14, pound sign), respectively. When a pre-equilibrated (1 h), equimolar solution of GAPDH and GDNF was analyzed by gel filtration chromatography, two equally intense peaks were observed (FIG. 14, solid line) with retention times identical to the individual solutions.
Chain of GAPDH (P04406 2-335 limits assumed, species assumed): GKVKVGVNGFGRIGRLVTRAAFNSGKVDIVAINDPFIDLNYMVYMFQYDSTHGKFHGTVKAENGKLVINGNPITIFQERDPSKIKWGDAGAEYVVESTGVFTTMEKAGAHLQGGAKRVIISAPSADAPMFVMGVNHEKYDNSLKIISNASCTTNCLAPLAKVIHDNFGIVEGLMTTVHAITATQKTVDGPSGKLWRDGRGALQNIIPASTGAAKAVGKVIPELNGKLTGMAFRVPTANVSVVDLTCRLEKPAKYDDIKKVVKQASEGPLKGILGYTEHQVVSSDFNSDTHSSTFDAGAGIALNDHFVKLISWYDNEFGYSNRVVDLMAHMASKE
On the technique in general: Size exclusion chromatography separates by hydrodynamic size, large species first.

Assay [5] concerns Erk1/2. Description: ERK1/2 activation by western blot. The format is cell-based. To be noted: DNSP-11 0.1 uM or 1 uM or GDNF 50 ng/ml for 20 minutes. On the procedure: MN9D and B65 cell were cultured in DMEM; 11995 (containing pyridoxol HCl; Sigma, St. Louis, Mo.) supplemented with 10% fetal bovine serum (HyClone, Logan, Utah), 50 U/mL penicillin and streptomycin with DNSP-11 (0.1 uM or 1 uM) or GDNF (50 ng/ml) for 20 minutes. The cells were then solubilized in Triton-X-100/glycerol lysis buffer and subjected to electrophoresis and western blotting as partially described previously (Jiang et al., Mol Biol Cell 14:859-70 (2003)). To detect phosphorylated Erk (#4377 Cell Signaling) and ERK (#4696 Cell Signaling) by immunoblotting, the cells were directly lysed in the sample loading buffer. Secondary IRDye 700X and IRDye800 conjugated, fluorescent antibodies (Rockland Inc.) were used to detect signal with Odyssey v3.0 scanning software. Several blots were analyzed to determine the linear range of the fluorescence signals, and quantifications were performed using densitometry analysis.
(Immunoblotting shows a protein as a band on a membrane.)

The subject of assay [6] is young and aged rats. The conditions noted are these: Hebert et al. 1996, 1997, cited from earlier work.

B1: GDNF: mature glial cell line-derived neurotrophic factor, homodimer of 32-42 kDa, comparator (protein, listed as Homo sapiens)
chain: SPDKQMAVLPRRERNRQAAAANPENSRGKGRRGQRGKNRGCVLTAIHLNVTDLGLGYETKEELIFRYCSGSCDAAETTYDKILKNLSRNRRLVSDKVGQACCRPIAFDDDLSFLDDNLVYHILRKHSAKRCGCI
modifications: homodimer
notes: mature glial cell line-derived neurotrophic factor, homodimer of 32-42 kDa, comparator
Regarding B1, in assay [1] (0.1 ng/ml, 5 days in vitro, control 100), the Cell survival entry was “*158 ± 12”. The “Average branches per neuron” value in assay [1] (0.1 ng/ml, controls 3.8 ± 0.2 (GDNF), 3.1 ± 0.2 (DNSP-11)) is on record as “**4.7 ± 0.2”. In addition, in assay [1] (0.1 ng/ml, controls 171 ± 4 (GDNF), 168 ± 3 (DNSP-11)), the “Soma size (um^2)” value amounted to 177 ± 4 um^2. In assay [1] (0.1 ng/ml, controls 242 ± 12 (GDNF), 222 ± 11 (DNSP-11)), the “Combined neurite length (um)” value is “**310 ± 16 um”. In addition, the “TH+ neuron counts” value in assay [1] (0.03, 0.1, 1.0 and 10 ng/ml) is recorded as “significantly increase”. Moreover, the “percent of TUNEL positive cells” value in assay [2] is “significant reduction”. In addition, the caspase-3 activity entry in assay [3] is given as “significant reduction”. Also, the “interaction with GAPDH in solution” value in assay [4] was “does not interact”. For the same molecule, the “phosphorylation of Erk1/2 (ratio of phosphorylated to non-phosphorylated)” value in assay [5] (B65 cells) and in assay [5] (MN9D cells) was “elevated levels of activated Erk” each time. Further, in assay [6], the “augmentation of evoked release of dopamine” value is reported as “over 100%”. For the same molecule, in assay [6] (young and aged rats), the “increase of basal levels of DOPAC” value is 20-25%.
